Biological target: three-disulphide variant of core gp120 (HXBc2) (HIV-1 (HXBc2))
Assay: SPR

Substance: CD4-induced antibody 17b
- fold increase in on-rate (through stabilization): 95 fold
